# Target: human interferon γ (human) (UniProt P01579)
# Assay: cell-based or functional assay
# human interferon γ (human), sequence (P01579 24-166 limits assumed): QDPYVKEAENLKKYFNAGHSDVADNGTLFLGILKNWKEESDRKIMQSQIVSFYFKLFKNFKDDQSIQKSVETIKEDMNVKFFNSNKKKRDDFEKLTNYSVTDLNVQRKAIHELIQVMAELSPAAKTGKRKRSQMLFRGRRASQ
"IC50 (M), GAS-luciferase bioassay in HEK293 cells","IC50 (M), ISRE-luciferase bioassay in HEK293 cells",Binder
1.3e-08 M,2.4e-07 M,"hIFNγRα(33-239).TG.hIFNγRβ.SG.hFc (Fc fusion, not shown: a dimerising Fc or GST) TNVTIESYNMNPIVYWEYQIMPQVPVFTVEVKNYGVKNSEWIDACINISHHYCNISDHVGDPSNSLWVRVKARVGQKESAYAKSEEFAVCRDGKIGPPKLDIRKEEKQIMIDIFHPSVFVNGDEQEVDYDPETTCYIRVYNVYVRMNGSEIQYKILTQKEDDCDEIQCQLAIPVSSLNSQYCVSAEGVLHVWGVTTEKSKEVCITIFTGSQLPAPQHPKIRLYNAEQVLSWEPVALSNSTRPVVYQVQFKYTDSKWFTADIMSIGVNCTQITATECDFTAASPSAGFPMDFNVTLRLRAELGALHSAWVTMPWFQHYRNVTVGPPENIEVTPGEGSLIIRFSSPFDIADTSTAFFCYYVHYWEKGGIQQVKGPFRSNSISLDNLKPSRVYCLQVQAQLLWNKSNIFRVGHLSNISCYETMADASTELQSG"
3.2e-09 M,1.3e-09 M,"hIFNγRα(24-239).TG.hIFNγRβ.SG.hFc (Fc fusion, not shown: a dimerising Fc or GST) LGPSSVPTPTNVTIESYNMNPIVYWEYQIMPQVPVFTVEVKNYGVKNSEWIDACINISHHYCNISDHVGDPSNSLWVRVKARVGQKESAYAKSEEFAVCRDGKIGPPKLDIRKEEKQIMIDIFHPSVFVNGDEQEVDYDPETTCYIRVYNVYVRMNGSEIQYKILTQKEDDCDEIQCQLAIPVSSLNSQYCVSAEGVLHVWGVTTEKSKEVCITIFTGSQLPAPQHPKIRLYNAEQVLSWEPVALSNSTRPVVYQVQFKYTDSKWFTADIMSIGVNCTQITATECDFTAASPSAGFPMDFNVTLRLRAELGALHSAWVTMPWFQHYRNVTVGPPENIEVTPGEGSLIIRFSSPFDIADTSTAFFCYYVHYWEKGGIQQVKGPFRSNSISLDNLKPSRVYCLQVQAQLLWNKSNIFRVGHLSNISCYETMADASTELQSG"
4.6e-09 M,2.57e-09 M,"hIFNγRα(23-239).SG.hFc (Fc fusion, not shown: a dimerising Fc or GST) DLGPSSVPTPTNVTIESYNMNPIVYWEYQIMPQVPVFTVEVKNYGVKNSEWIDACINISHHYCNISDHVGDPSNSLWVRVKARVGQKESAYAKSEEFAVCRDGKIGPPKLDIRKEEKQIMIDIFHPSVFVNGDEQEVDYDPETTCYIRVYNVYVRMNGSEIQYKILTQKEDDCDEIQCQLAIPVSSLNSQYCVSAEGVLHVWGVTTEKSKEVCITIFSG"
1e-09 M,7.9e-10 M,"hIFNγRα(23-239).TG.hFc.ARA.hIFNγRβ (Fc fusion, not shown: a dimerising Fc or GST) chain (part 1 of 2): DLGPSSVPTPTNVTIESYNMNPIVYWEYQIMPQVPVFTVEVKNYGVKNSEWIDACINISHHYCNISDHVGDPSNSLWVRVKARVGQKESAYAKSEEFAVCRDGKIGPPKLDIRKEEKQIMIDIFHPSVFVNGDEQEVDYDPETTCYIRVYNVYVRMNGSEIQYKILTQKEDDCDEIQCQLAIPVSSLNSQYCVSAEGVLHVWGVTTEKSKEVCITIFTG chain (part 2 of 2): ARASQLPAPQHPKIRLYNAEQVLSWEPVALSNSTRPVVYQVQFKYTDSKWFTADIMSIGVNCTQITATECDFTAASPSAGFPMDFNVTLRLRAELGALHSAWVTMPWFQHYRNVTVGPPENIEVTPGEGSLIIRFSSPFDIADTSTAFFCYYVHYWEKGGIQQVKGPFRSNSISLDNLKPSRVYCLQVQAQLLWNKSNIFRVGHLSNISCYETMADASTELQ"
2.1e-08 M,1.2e-08 M,"hIFNγRα(24-239).SG.hFc (Fc fusion, not shown: a dimerising Fc or GST) LGPSSVPTPTNVTIESYNMNPIVYWEYQIMPQVPVFTVEVKNYGVKNSEWIDACINISHHYCNISDHVGDPSNSLWVRVKARVGQKESAYAKSEEFAVCRDGKIGPPKLDIRKEEKQIMIDIFHPSVFVNGDEQEVDYDPETTCYIRVYNVYVRMNGSEIQYKILTQKEDDCDEIQCQLAIPVSSLNSQYCVSAEGVLHVWGVTTEKSKEVCITIFSG"
1.1e-08 M,6e-09 M,"hIFNγRα(24-239).TG.hFc.ARA.hIFNγRβ (Fc fusion, not shown: a dimerising Fc or GST) chain (part 1 of 2): LGPSSVPTPTNVTIESYNMNPIVYWEYQIMPQVPVFTVEVKNYGVKNSEWIDACINISHHYCNISDHVGDPSNSLWVRVKARVGQKESAYAKSEEFAVCRDGKIGPPKLDIRKEEKQIMIDIFHPSVFVNGDEQEVDYDPETTCYIRVYNVYVRMNGSEIQYKILTQKEDDCDEIQCQLAIPVSSLNSQYCVSAEGVLHVWGVTTEKSKEVCITIFTG chain (part 2 of 2): ARASQLPAPQHPKIRLYNAEQVLSWEPVALSNSTRPVVYQVQFKYTDSKWFTADIMSIGVNCTQITATECDFTAASPSAGFPMDFNVTLRLRAELGALHSAWVTMPWFQHYRNVTVGPPENIEVTPGEGSLIIRFSSPFDIADTSTAFFCYYVHYWEKGGIQQVKGPFRSNSISLDNLKPSRVYCLQVQAQLLWNKSNIFRVGHLSNISCYETMADASTELQ"
1.9e-10 M,5.3e-11 M,"hIFNγRα(23-239).TG.hIFNγRβ.SG.hFc (Fc fusion, not shown: a dimerising Fc or GST) DLGPSSVPTPTNVTIESYNMNPIVYWEYQIMPQVPVFTVEVKNYGVKNSEWIDACINISHHYCNISDHVGDPSNSLWVRVKARVGQKESAYAKSEEFAVCRDGKIGPPKLDIRKEEKQIMIDIFHPSVFVNGDEQEVDYDPETTCYIRVYNVYVRMNGSEIQYKILTQKEDDCDEIQCQLAIPVSSLNSQYCVSAEGVLHVWGVTTEKSKEVCITIFTGSQLPAPQHPKIRLYNAEQVLSWEPVALSNSTRPVVYQVQFKYTDSKWFTADIMSIGVNCTQITATECDFTAASPSAGFPMDFNVTLRLRAELGALHSAWVTMPWFQHYRNVTVGPPENIEVTPGEGSLIIRFSSPFDIADTSTAFFCYYVHYWEKGGIQQVKGPFRSNSISLDNLKPSRVYCLQVQAQLLWNKSNIFRVGHLSNISCYETMADASTELQSG"
